Test results: publication PMC4357726

Biological target: T1, TtHisRS (histidyl-tRNA synthetase) (Thermus thermophilus HB27 (ATCC …, UniProt P62374 1-421))
T1 sequence: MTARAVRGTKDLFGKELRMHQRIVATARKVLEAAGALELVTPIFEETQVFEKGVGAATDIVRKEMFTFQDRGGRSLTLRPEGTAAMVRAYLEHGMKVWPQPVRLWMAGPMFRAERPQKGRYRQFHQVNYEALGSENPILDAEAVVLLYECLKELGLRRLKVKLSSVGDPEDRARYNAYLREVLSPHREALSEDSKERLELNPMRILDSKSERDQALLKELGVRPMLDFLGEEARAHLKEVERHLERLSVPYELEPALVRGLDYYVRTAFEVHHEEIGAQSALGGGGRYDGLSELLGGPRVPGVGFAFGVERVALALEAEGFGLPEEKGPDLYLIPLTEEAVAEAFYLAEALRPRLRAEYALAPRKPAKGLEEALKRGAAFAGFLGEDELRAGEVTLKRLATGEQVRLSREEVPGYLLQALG
Assay: X-ray crystallography

B1: tRNAHis(GUG) transcript (TttRNAHis) (structured_RNA)
RNA: GGUGAGCGUAGCUCAGCUGGUAGACCACCGGACUGAGAUCCGGGGGUCGUGGGUUCAAGUCCCAUCGCUCACCCCA
Q: Does B1 bind?
A: binds
